Measured values: publication PMC6711944

Target: NS1B-NTR (1-103), N-terminal region of the influenza B virus NS1 protein (influenza B virus) (UniProt P03502)
Assay: ITC; about 0.5 mM ISG15 injected into 250 ul of 0.05 mM NS1B-NTR in the cell, 20 aliquots of 2 ul; 25 °C; 10 mM HEPES-sodium, 500 mM NaCl, pH 7.2; MicroCal iTC200; 'one set of sites' fitting model

## cISG15-K82A-N83A (natural protein)
  Kd: 12 µM
